{"source": "paper PMC9054685", "about": "(RSC Advances, 2020)", "assay": "Particle size by dynamic light scattering", "assay_type": "physicochemical", "details": "Zetasizer Nano ZS, 25 °C"}
{"substance": "dendritic polylysine-1,4,7-triazacyclononane-1,4,7-triacetic acid conjugate [NOTA-DGL]", "values": [{"measurement": "diameter (particle size, DLS)", "value": "35.02 ± 1.53", "unit": "nm"}]}
